Patent publication US6884600B1, “Protein phosphatase-1 catalytic subunit interactions” (Medical Research Council London, priority 1996, dated 2005)

Legend:
M21 subunit = experiment: Far Western blotting: interaction with the M21 subunit; format: binding, chicken; conditions: for recognised by digoxigenin-labelled M21 subunit in Far Western blotting: probe 0.2 μg/ml
Description: A) PP1M 5 μg (track 1), 10 μg bacterial extract containing M110-(R714-I1004) (track 2), MBP-M110-(R714-I004) 1 μg (track 3), MBP-M110-(R714-L934) 1 μg (track 4), MBP-M110-(K933-I1004) 1 μg (track 5), MBP 1 μg (track 6), M110-(M1-E309) 2 μg (lane 7) and M110-(M1-S477) 2 μg (track 8) were run on a 12% SDS/polyacrylamide gel and stained with Coomassie Blue. B) same as A) except that 10-fold less protein was electrophoresed and after transfer to nitrocellulose the proteins were probed with digoxigenin-labelled M21 subunit (0.2 μg/ml). C) same as B) except that, after electrophoresis, the proteins were transferred to nitrocellulose and probed with digoxigenin-labelled M21-(M1-L146) (0.2 μg/ml).
A) GST-M21 5 μg (track 1), M21 5 μg (track 2), M21-(M1-L146) 5 μg (track 3), M21-(M1-E110) 20 μg (track 4) and M21-(E110-K186) 5 μg (track 5) were run on 16.5% polyacrylamide gels and stained with Coomassie Blue. The marker proteins ovalbumin (43 kDa) and carbonic anhydrase (29 kDa) are indicated. B) GST-M21 0.5 μg (track 1), M21 0.5 μg (track 2), M21-M1-L146) 0.5 μg (track 3), M21-(M1-E110) 5 μg (track 4) and M21-(E110-K186) 5 μg (track 5) were electrophoresed as in A) and after transfer to nitrocellulose the blots were probed with digoxigenin-labelled MBP-M110-(K933-I1004) (0.2 μg/Ml). C) same as B) except that, after electrophoresis, the proteins were transferred to nitrocellulose and probed with digoxigenin-labelled M21 subunit (0.2 μg/ml).
PP1M (0.5 μAg) was electrophoresed on a 12% SDS/polyacrylamide gel, transferred to nitrocellulose and probed with digoxigenin-labelled M21 subunit (0.2 μg/ml) (track 1) or digoxigenin-labelled M21-(M1-L146) (0.2 μg/ml) (track 2). The positions of the M110 subunit, the M21 subunit and PP1c are marked.
Proteins were labelled with digoxigenin and Far Western analyses carried out as described, except that the digoxigenin-labelled probe was used at a concentration of 0.2 μg/ml instead of 2 μg/ml. SDS/polyacrylamide gel electrophoresis was carried out on 7.5-15% gels according to Laemmli and on 16.5% gels according to Schagger and von Jagow. Protein was estimated according to Bradford.

myosin = target: T1, myosin (Gallus gallus, UniProt P10587); experiment: Myosin binding assay (pelleting with myosin); design: species or system chicken; conditions: myosin 1 μM, 15 min 0° C.
T1 construct: from tissue; host or cells: chicken gizzard
T1 sequence (P10587 whole entry): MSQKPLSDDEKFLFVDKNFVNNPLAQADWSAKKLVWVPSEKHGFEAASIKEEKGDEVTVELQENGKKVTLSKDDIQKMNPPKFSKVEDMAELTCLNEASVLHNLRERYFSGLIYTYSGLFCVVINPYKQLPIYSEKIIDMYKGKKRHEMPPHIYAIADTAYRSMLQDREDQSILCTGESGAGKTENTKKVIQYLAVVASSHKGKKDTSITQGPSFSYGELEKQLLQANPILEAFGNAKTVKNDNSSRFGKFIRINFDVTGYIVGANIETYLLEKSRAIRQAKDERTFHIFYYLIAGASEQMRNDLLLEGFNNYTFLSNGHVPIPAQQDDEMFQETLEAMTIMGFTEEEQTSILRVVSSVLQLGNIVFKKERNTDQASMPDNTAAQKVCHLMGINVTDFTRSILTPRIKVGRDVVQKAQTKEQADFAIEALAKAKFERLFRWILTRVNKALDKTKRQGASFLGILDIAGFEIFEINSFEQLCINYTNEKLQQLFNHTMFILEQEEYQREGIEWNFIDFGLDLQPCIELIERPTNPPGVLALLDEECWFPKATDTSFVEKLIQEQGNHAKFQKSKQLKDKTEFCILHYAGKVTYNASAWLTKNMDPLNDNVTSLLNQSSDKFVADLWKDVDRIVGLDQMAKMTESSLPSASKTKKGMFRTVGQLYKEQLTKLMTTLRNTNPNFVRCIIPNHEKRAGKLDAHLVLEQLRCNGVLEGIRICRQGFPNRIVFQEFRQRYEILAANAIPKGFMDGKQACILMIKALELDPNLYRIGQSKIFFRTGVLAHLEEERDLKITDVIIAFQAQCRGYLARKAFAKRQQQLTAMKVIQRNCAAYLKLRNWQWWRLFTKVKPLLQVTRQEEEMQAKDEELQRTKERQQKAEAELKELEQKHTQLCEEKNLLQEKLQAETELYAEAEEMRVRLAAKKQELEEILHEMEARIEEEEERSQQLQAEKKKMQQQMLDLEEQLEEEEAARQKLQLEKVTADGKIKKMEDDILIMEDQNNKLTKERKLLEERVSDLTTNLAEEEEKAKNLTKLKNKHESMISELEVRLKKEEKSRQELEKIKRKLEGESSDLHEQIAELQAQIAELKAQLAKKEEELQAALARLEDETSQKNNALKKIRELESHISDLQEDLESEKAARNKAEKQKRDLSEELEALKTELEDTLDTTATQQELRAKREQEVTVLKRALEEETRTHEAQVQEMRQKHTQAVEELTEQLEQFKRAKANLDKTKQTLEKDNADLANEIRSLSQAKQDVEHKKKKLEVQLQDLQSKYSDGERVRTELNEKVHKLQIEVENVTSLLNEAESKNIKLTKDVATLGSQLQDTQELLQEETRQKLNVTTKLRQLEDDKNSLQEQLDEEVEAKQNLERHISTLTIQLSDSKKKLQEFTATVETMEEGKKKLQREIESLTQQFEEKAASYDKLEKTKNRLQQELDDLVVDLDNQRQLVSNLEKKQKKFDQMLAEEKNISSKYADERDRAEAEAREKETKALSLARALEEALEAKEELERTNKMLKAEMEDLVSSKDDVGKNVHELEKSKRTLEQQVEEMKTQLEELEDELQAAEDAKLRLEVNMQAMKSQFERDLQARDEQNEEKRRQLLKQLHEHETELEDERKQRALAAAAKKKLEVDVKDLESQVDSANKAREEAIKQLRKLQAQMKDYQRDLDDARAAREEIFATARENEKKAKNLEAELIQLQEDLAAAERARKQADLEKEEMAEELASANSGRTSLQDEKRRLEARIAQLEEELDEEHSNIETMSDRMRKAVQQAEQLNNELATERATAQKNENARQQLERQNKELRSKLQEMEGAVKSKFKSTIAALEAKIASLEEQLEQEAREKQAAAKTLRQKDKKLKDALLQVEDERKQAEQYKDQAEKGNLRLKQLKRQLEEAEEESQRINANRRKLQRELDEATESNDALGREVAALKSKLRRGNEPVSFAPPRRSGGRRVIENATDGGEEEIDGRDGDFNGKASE
T1 sequence (P02612 whole entry partner): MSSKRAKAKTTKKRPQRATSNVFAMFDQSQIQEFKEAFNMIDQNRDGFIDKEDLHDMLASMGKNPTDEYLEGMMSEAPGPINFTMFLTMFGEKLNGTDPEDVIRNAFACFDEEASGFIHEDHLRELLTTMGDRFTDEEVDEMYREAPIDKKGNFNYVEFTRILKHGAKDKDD
T1 sequence (P02607 whole entry partner): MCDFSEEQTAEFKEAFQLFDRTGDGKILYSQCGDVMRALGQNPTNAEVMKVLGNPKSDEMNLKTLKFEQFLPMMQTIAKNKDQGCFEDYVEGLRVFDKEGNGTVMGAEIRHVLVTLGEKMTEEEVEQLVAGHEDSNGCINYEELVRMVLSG
Description: The PP1 catalytic subunit (PP1c), PP1M, or PP1M lacking the M21 subunit, PP1M(ΔM21), each at 30 nM, were incubated for 15 min at 0° C. with 1 μM myosin and centrifuged (see Methods of Example 3). […] The results shown are the average (±S.E.M.) for three separate experiments each assayed in duplicate.
(A); PP1M, M110-(M1-S477) and GST-M110-(M377-K976), each at 30 nM were incubated for 15 min at 0° C. with 1 μM myosin and centrifuged. The supernatants (S), resuspended pellets (P) and the suspension before centrifugation (T, total) were electrophoresed on 12% SDS/polyacrylamide gels, transferred to nitrocellulose and immunoblotted with antibodies raised against the PP1M holoenzyme. No protein was pelleted in the absence of myosin (not shown). The positions of the marker proteins myosin heavy chain (200 kDa), glycogen phosphorylase (97 kDa), bovine serum albumin (66 kDa), ovalbumin (43 kDa), carbonic anhydrase (29 kDa) and soybean trypsin inhibitor (20 kDa) are indicated. (B) The experiments were carried out as in (A), except that the M110 fragments and M21 subunit were used at 100 nM, the 8.5 kDa M110-(K933-I1004) fragment was electrophoresed on a 16.5% polyacrylamide gel and immunoblotting was carried out with affinity purified antibodies (see Methods). A small amount of M110-(R714-I1004) pelleted in the absence of myosin. […] No other protein was pelleted in the absence of myosin.
(A); Myosin (1 μM) was mixed with 50 μM, 20 μM or 10 μM M21 subunit to give the molar ratios M21:myosin dimer indicated. After 15 min at 0° C., the solutions were centrifuged and the supernatants (S), resuspended pellets (P) and the suspension before centrifugation (T, total) were electrophoresed on 12% SDS/polyacrylamide gels and stained with Coomassie blue. The positions of the myosin heavy chain (MHC) and the M21 subunit are indicated. The myosin light chains migrate faster than the M21 subunit and are not visible at these loadings.
Myosin binding assays. Myosin (0.5 mg/ml, 1 μM in terms of myosin heavy chains) in 10 mM Hepes pH 7.5, 50 mM KCl, 5 mM MgCl2, 0.1% (by vol) 2-mercaptoethanol, was mixed with PP1M, M21 subunit, or fragments of the M110 and M21 subunits, at the concentrations indicated in figure legends. After incubation for 15 min at 0° C., the solutions were centrifuged for 2 min at 13,000×g, the supernatants removed, and the pellets washed twice in 10 mM Hepes pH 7.5, 50 mM KCl, 5 mM MgCl2, 0.1% (by vol) 2-mercaptoethanol before resuspension in 50 mM Tris-HCl pH 7.5, 0.1 mM EGTA, 0.03% (by mass) Brij 35, 0.6 M NaCl, 0.1% (by vol) 2-mercaptoethanol. Aliquots of the supernatant, the resuspended pellet and the suspension before centrifugation were either assayed for myosin P-light chain phosphatase activity or denatured in SDS and analysed by SDS/polyacrylamide gel electrophoresis.

B1: M110 subunit: 110 kDa myofibrillar-binding subunit of PP1 (protein)
chain: MKMADAKQKRNEQLKRWIGSETDLEPPVVKRKKTKVKFDDGAVFLAACSSGDTEEVLRLLERGADINYANVDGLTALHQACIDDNVDMVKFLVENGANINQPDNEGWIPLHAAASCGYLDIAEYLISQGAHVGAVNSEGDTPLDIAEEEAMEELLQNEVNRQGVDIEAARKEEERIMLRDARQWLNSGHINDVRHAKSGGTALHVAAAKGYTEVLKLLIQARYDVNIKDYDGWTPLHAAAHWGKEEACRILVENLCDMEAVNKVGQTAFDVADEDILGYLEELQKKQNLLHSEKREKKSPLIESTANLDNNQTQKTFKNKETLIMEQEKNASSIESLEHEKADEEEEGKKDESSCSSEEEEDDDSESEAETDKAKTLANANTTSTQSASMTAPSVAGGQGTPTSPLKKFPTSTTKVSPKEEERKDESPASWRLGLRKTGSYGALAEITASKEAQKEKDSAGVIRSASSPRLSSSLDNKEKEKDGKGTRLAYVAPTIPRRLASTSDIDEKENRDSSASSIRSGSSYARRKWEEDVKKNSLNEGPTSLNTSYQRSGSFGRRQDDLVSSNVPSTASTVTSSAGLQKTLPASANTTTKSTTGSTSAGVQSSTSNRLWAEDSTEKEKDSVPTAVTVPVAPSVVNAAATTTAMTTATSGTVSSTSEVRERRRSYLTPVRDEESESQRKARSRQARQSRRSTQGVTLTDLQEAEKTIGRSRSTRTREQENEEKEKEEKEKQDKEKQEEKKESETKDDDYRQRYSRTVEEPYHRYRPTSTSTSTSSTSSLSTSTSSLSSSSQLNRPNSLIGITSAYSRSGTKESEREGGKKEEEKEEDKSQPKSIRERRRPREKRRSTGVSFWTQDSDENEQEHQSDSEEGTNKKETQSDSLSRYDTGSLSVSSGDRYDSAQGRSGSQSYLEDRKPYCSRLEKEDSTDFKKLYEQILAENEKLKAQLHDTNMELTDLKLQLEKTTQRQERFADRSLLEMEKRVSGKSQYLLGGKKSSRKKDI
Q: Which “recognised by digoxigenin-labelled M21 subunit in Far Western blotting” value (M21 subunit) does the source give for B1 here?
A: recognised

B2: M110-(R714-L934): chicken gizzard M110 fragment, residues 714-934 (protein)
chain: RSTRTREQENEEKEKEEKEKQDKEKQEEKKESETKDDDYRQRYSRTVEEPYHRYRPTSTSTSTSSTSSLSTSTSSLSSSSQLNRPNSLIGITSAYSRSGTKESEREGGKKEEEKEEDKSQPKSIRERRRPREKRRSTGVSFWTQDSDENEQEHQSDSEEGTNKKETQSDSLSRYDTGSLSVSSGDRYDSAQGRSGSQSYLEDRKPYCSRLEKEDSTDFKKLGTGRRFTTS
modifications: left off: large carriers
Q: How did the “recognised by digoxigenin-labelled M21 subunit in Far Western blotting” value (M21 subunit) turn out when B2 was run?
A: not

B3: MBP-M110-(R714-I1004): maltose binding protein fusion of M110-(R714-I1004) (protein)
chain: RSTRTREQENEEKEKEEKEKQDKEKQEEKKESETKDDDYRQRYSRTVEEPYHRYRPTSTSTSTSSTSSLSTSTSSLSSSSQLNRPNSLIGITSAYSRSGTKESEREGGKKEEEKEEDKSQPKSIRERRRPREKRRSTGVSFWTQDSDENEQEHQSDSEEGTNKKETQSDSLSRYDTGSLSVSSGDRYDSAQGRSGSQSYLEDRKPYCSRLEKEDSTDFKKLYEQILAENEKLKAQLHDTNMELTDLKLQLEKTTQRQERFADRSLLEMEKRVSGKSQYLLGGKKSSRKKDI
modifications: left off: large carriers
Q: B3 was tested. Which “digoxigenin-labelled probe recognises the full length M21 subunit and M21(M1-L146) in Far Western blotting” value (M21 subunit) did it give?
A: recognised

B4: MBP-M110-(K933-I1004): maltose binding protein fusion of M110-(K933-I1004) (protein)
chain: KLYEQILAENEKLKAQLHDTNMELTDLKLQLEKTTQRQERFADRSLLEMEKRVSGKSQYLLGGKKSSRKKDI
modifications: left off: large carriers
Q: B4 was tested. Which “digoxigenin-labelled probe recognises the full length M21 subunit and M21(M1-L146) in Far Western blotting” value (M21 subunit) did it give?
A: recognised

B5: MBP-M110-(R714-L934): maltose binding protein fusion of M110-(R714-L934) (protein)
chain: RSTRTREQENEEKEKEEKEKQDKEKQEEKKESETKDDDYRQRYSRTVEEPYHRYRPTSTSTSTSSTSSLSTSTSSLSSSSQLNRPNSLIGITSAYSRSGTKESEREGGKKEEEKEEDKSQPKSIRERRRPREKRRSTGVSFWTQDSDENEQEHQSDSEEGTNKKETQSDSLSRYDTGSLSVSSGDRYDSAQGRSGSQSYLEDRKPYCSRLEKEDSTDFKKLGTGRRFTTS
modifications: left off: large carriers
Q: For B5, which “digoxigenin-labelled probe recognises the full length M21 subunit and M21(M1-L146) in Far Western blotting” value (M21 subunit) is on record?
A: not

B6: GST-M110-(M377-K976): GST fusion of the C-terminal 600 residues of the M110 subunit from rat aorta (protein)
chain: MASVTNAHTASTQAAPAAVTTPTLSSNQGTPTSPVKKFPTSTTKISPKEEERKDESPASWRLGLRKTGSYGALAEITASKEAQKEKDTAGVIRSASSPRLSSSLDNKEKEKDNKGTRLAYVAPTIPRRLGSTSDIEEKENRESSNLRTSSSYTRRKWEDDLKKNSSINEGSTYHRSTSNRLWAEDSTEKEKDSAPTAATILVAPTVVSAAASSTTALTTTTAGTLSSTSEVRERRRSYLTPVRDEESESQRKARSRQARQSRRSTQGVTLTDLQEAEKTIGRSRSTRTREQENEEKDKEEKEKQDKEKQEEKKESEVSREDEYKQKYSRTYDETYARYRPVSTSSSSTPSSSSLSTLGSSLYASSQLNRPNSLVGITSAYSRGLTKDNEREGEKKEEEKEGEDKSQPKSIRERRRPREKRRSTGVSFWTQDSDENEQERQSDTEDGSSKRDTQTDSVSRYDSSSTSSSDRYDSLLGRSASYSYLEERKPYGSRLEKDDSTDFKKLYEQILAENEKLKAQLHDTNMELTDLKLQLEKATQRQERFADRSLLEMEKRERRALERRISEMEEELKMLPDLKADNQRLKDENGALIRVISKLSK
modifications: left off: a dimerising Fc or GST
notes: GST fusion of the C-terminal 600 residues of the M110 subunit from rat aorta
Q: How did the binding to myosin (myosin) turn out when B6 was run?
A: bound to myosin

B7: GST-M21: GST fusion of the chicken gizzard M21 subunit (M1-K186) (protein)
chain: MSSLFTRSKEYTRSRKSQSDSPPSSPSPIAKTLRHERLSRLEAATTPATSDSYSDRASSRSSAYSRRENRLAALSSRAEEESNRDYKKLYESALSENQKLKSKLQEAQLELADIKSKLEKAAQQKHEKTSDRSSMLEMEKREKRALERKLSEMEEEMKILTELKSDNQRLKDENGALIRVISKLSK
modifications: left off: a dimerising Fc or GST; small tags and cut ends
Q: For B7, which binding to myosin (myosin) is on record?
A: bound to myosin
